The source of these data is US20190382738A1.

Assay [1] concerns the target T1, B-Raf kinase, P15056.
T1 chain: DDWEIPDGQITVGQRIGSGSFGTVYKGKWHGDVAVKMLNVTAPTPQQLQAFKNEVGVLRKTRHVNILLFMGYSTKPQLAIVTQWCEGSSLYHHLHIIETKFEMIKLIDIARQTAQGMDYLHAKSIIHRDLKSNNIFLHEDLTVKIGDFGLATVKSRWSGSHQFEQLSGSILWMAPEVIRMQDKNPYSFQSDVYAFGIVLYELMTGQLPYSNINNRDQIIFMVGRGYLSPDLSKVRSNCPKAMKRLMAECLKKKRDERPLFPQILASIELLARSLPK
In words: intrinsic fluorescence titration, column head Kd (ITF) (µM).

For assay [2], the target named is T1, B-Raf kinase, P15056. The assay is described as follows: isothermal titration calorimetry. (ITC needs no label: the signal is the heat of the interaction.)

The molecule LRKTRHVNI (modifications not checked) [6257] yielded a Kd with B-Raf kinase, P15056 [1] of 20 nM.
Turning to GVLRKARHVNILLFMGYST (modifications not checked) [Peptide corresponding to SEQ ID NO: 8], in the assay with B-Raf kinase, P15056 [2], the ΔS is -28.4 J/mol·K.

What is called Kd is the constant that tells how readily two partners part at equilibrium. Higher therefore signals a looser complex.
